Source: patent US9150647 (KANCERA, dated 2015)
Each block holds one molecule with its values, some of them ahead of it.

Tests used:
[1] = target: human Ror1 (receptor tyrosine kinase ROR1, 937 amino acids, 105 kDa) (human) (UniProt Q01973); test: flow cytometry, surface staining of CD19+ cells of patient CLL-7
[2] = target: human Ror1 (receptor tyrosine kinase ROR1, 937 amino acids, 105 kDa) (human) (UniProt Q01973); test: flow cytometry, surface staining of CD19+ cells of patient CLL-6
[3] = target: human Ror1 (receptor tyrosine kinase ROR1, 937 amino acids, 105 kDa) (human) (UniProt Q01973); test: flow cytometry, surface staining of CD19+ cells of patient CLL-12
[4] = target: human Ror1 (receptor tyrosine kinase ROR1, 937 amino acids, 105 kDa) (human) (UniProt Q01973); test: flow cytometry, surface staining of cells of patient CLL-12
[5] = target: human Ror1 (receptor tyrosine kinase ROR1, 937 amino acids, 105 kDa) (human) (UniProt Q01973); test: flow cytometry, surface staining of CD19+ cells of patient CLL-11
[6] = target: human Ror1 (receptor tyrosine kinase ROR1, 937 amino acids, 105 kDa) (human) (UniProt Q01973); test: flow cytometry, surface staining of cells of patient CLL-3
[7] = target: human Ror1 (receptor tyrosine kinase ROR1, 937 amino acids, 105 kDa) (human) (UniProt Q01973); test: flow cytometry, surface staining of cells of patient CLL-18
[8] = target: human Ror1 (receptor tyrosine kinase ROR1, 937 amino acids, 105 kDa) (human) (UniProt Q01973); test: flow cytometry, surface staining of cells of patient CLL-2
[9] = target: human Ror1 (receptor tyrosine kinase ROR1, 937 amino acids, 105 kDa) (human) (UniProt Q01973); test: flow cytometry, surface staining of cells of patient CLL-16
[10] = target: human Ror1 (receptor tyrosine kinase ROR1, 937 amino acids, 105 kDa) (human) (UniProt Q01973); test: flow cytometry, surface staining of CD19+ cells of patient CLL-15
[11] = target: human Ror1 (receptor tyrosine kinase ROR1, 937 amino acids, 105 kDa) (human) (UniProt Q01973); test: flow cytometry, surface staining of CD19+ cells of patient CLL-10
[12] = target: human Ror1 (receptor tyrosine kinase ROR1, 937 amino acids, 105 kDa) (human) (UniProt Q01973); test: flow cytometry, surface staining of CD19+ cells of patient CLL-18
[13] = target: human Ror1 (receptor tyrosine kinase ROR1, 937 amino acids, 105 kDa) (human) (UniProt Q01973); test: flow cytometry, surface staining of CD19+ cells of patient CLL-2
[14] = target: human Ror1 (receptor tyrosine kinase ROR1, 937 amino acids, 105 kDa) (human) (UniProt Q01973); test: flow cytometry, surface staining of CD19+ cells of patient CLL-8
[15] = target: human Ror1 (receptor tyrosine kinase ROR1, 937 amino acids, 105 kDa) (human) (UniProt Q01973); test: flow cytometry, surface staining of CD19+ cells of patient CLL-16
[16] = target: human Ror1 (receptor tyrosine kinase ROR1, 937 amino acids, 105 kDa) (human) (UniProt Q01973); test: flow cytometry, surface staining of cells of patient CLL-13
[17] = target: human Ror1 (receptor tyrosine kinase ROR1, 937 amino acids, 105 kDa) (human) (UniProt Q01973); test: flow cytometry, surface staining of cells of patient CLL-7
[18] = target: human Ror1 (receptor tyrosine kinase ROR1, 937 amino acids, 105 kDa) (human) (UniProt Q01973); test: flow cytometry, surface staining of cells of patient CLL-11
[19] = target: human Ror1 (receptor tyrosine kinase ROR1, 937 amino acids, 105 kDa) (human) (UniProt Q01973); test: flow cytometry, surface staining of cells of patient CLL-15
[20] = target: human Ror1 (receptor tyrosine kinase ROR1, 937 amino acids, 105 kDa) (human) (UniProt Q01973); test: flow cytometry, surface staining of CD19+ cells of patient CLL-9
[21] = target: human Ror1 (receptor tyrosine kinase ROR1, 937 amino acids, 105 kDa) (human) (UniProt Q01973); test: flow cytometry, surface staining of cells of patient CLL-9
[22] = target: human Ror1 (receptor tyrosine kinase ROR1, 937 amino acids, 105 kDa) (human) (UniProt Q01973); test: flow cytometry, surface staining of CD19+ cells of patient CLL-5
[23] = target: human Ror1 (receptor tyrosine kinase ROR1, 937 amino acids, 105 kDa) (human) (UniProt Q01973); test: flow cytometry, surface staining of cells of patient CLL-8
[24] = target: human Ror1 (receptor tyrosine kinase ROR1, 937 amino acids, 105 kDa) (human) (UniProt Q01973); test: flow cytometry, surface staining of cells of patient CLL-4
[25] = target: human Ror1 (receptor tyrosine kinase ROR1, 937 amino acids, 105 kDa) (human) (UniProt Q01973); test: flow cytometry, surface staining of CD19+ cells of patient CLL-17
[26] = target: human Ror1 (receptor tyrosine kinase ROR1, 937 amino acids, 105 kDa) (human) (UniProt Q01973); test: flow cytometry, surface staining of CD19+ cells of patient CLL-4
[27] = target: human Ror1 (receptor tyrosine kinase ROR1, 937 amino acids, 105 kDa) (human) (UniProt Q01973); test: flow cytometry, surface staining of CD19+ cells of patient CLL-1
[28] = target: human Ror1 (receptor tyrosine kinase ROR1, 937 amino acids, 105 kDa) (human) (UniProt Q01973); test: flow cytometry, surface staining of cells of patient CLL-10
[29] = target: human Ror1 (receptor tyrosine kinase ROR1, 937 amino acids, 105 kDa) (human) (UniProt Q01973); test: flow cytometry, surface staining of CD19+ cells of patient CLL-13
[30] = target: human Ror1 (receptor tyrosine kinase ROR1, 937 amino acids, 105 kDa) (human) (UniProt Q01973); test: flow cytometry, surface staining of cells of patient CLL-17
[31] = target: human Ror1 (receptor tyrosine kinase ROR1, 937 amino acids, 105 kDa) (human) (UniProt Q01973); test: flow cytometry, surface staining of cells of patient CLL-1
[32] = target: human Ror1 (receptor tyrosine kinase ROR1, 937 amino acids, 105 kDa) (human) (UniProt Q01973); test: flow cytometry, surface staining of cells of patient CLL-14
[33] = target: human Ror1 (receptor tyrosine kinase ROR1, 937 amino acids, 105 kDa) (human) (UniProt Q01973); test: flow cytometry, surface staining of CD19+ cells of patient CLL-14
[34] = target: human Ror1 (receptor tyrosine kinase ROR1, 937 amino acids, 105 kDa) (human) (UniProt Q01973); test: flow cytometry, surface staining of CD19+ cells of patient CLL-3
[35] = target: human Ror1 (receptor tyrosine kinase ROR1, 937 amino acids, 105 kDa) (human) (UniProt Q01973); test: flow cytometry, surface staining of cells of patient CLL-6
[36] = target: human Ror1 (receptor tyrosine kinase ROR1, 937 amino acids, 105 kDa) (human) (UniProt Q01973); test: flow cytometry, surface staining of cells of patient CLL-5
[37] = target: T1, human Ror1 (receptor tyrosine kinase ROR1, 937 amino acids, 105 kDa) (human, UniProt Q01973 30-937); test: flow cytometry, surface staining of CLL cells
T1 construct: whole, on cells; Endogenous Ror1 of primary CLL cells; the same entry is used for surface staining and for the 105 kDa band in Western blots of cell lysates; also called Ror1 protein
T1 sequence (Q01973 30-937): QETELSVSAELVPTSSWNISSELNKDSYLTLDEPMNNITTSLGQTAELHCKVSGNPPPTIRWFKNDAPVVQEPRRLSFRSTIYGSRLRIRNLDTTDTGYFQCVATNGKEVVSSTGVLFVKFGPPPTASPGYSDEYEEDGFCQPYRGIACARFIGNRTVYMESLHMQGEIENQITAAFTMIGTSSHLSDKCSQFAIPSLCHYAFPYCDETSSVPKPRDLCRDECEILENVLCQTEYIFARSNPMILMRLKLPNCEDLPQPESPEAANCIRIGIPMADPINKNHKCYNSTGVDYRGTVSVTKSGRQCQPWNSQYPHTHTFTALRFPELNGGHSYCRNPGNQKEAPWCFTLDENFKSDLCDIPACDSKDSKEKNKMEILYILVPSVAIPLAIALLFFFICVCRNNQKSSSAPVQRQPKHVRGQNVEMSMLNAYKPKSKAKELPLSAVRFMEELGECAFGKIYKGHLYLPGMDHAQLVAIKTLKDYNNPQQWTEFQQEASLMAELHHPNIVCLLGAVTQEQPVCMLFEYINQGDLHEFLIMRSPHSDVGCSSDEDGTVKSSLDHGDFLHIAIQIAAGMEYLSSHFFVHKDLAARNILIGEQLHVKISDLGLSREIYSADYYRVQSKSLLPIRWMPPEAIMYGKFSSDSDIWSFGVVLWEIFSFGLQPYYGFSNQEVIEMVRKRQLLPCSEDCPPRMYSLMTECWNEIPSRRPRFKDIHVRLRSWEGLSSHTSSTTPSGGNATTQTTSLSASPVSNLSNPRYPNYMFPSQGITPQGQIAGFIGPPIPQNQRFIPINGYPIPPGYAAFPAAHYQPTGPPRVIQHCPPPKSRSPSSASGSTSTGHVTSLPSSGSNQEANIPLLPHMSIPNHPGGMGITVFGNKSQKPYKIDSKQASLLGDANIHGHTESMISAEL

human Ror1 (receptor tyrosine kinase ROR1, 937 amino acids, 105 kDa) (human), sequence (Q01973 30-937): as above

Freq. (%) of Ror1+ CLL cells (CD19+) [1]: 37%
Freq. (%) of Ror1+ CLL cells (CD19+) [2]: 91%
Freq. (%) of Ror1+ CLL cells (CD19+) [3]: 81%
Ror1 MFI [4]: 15
Freq. (%) of Ror1+ CLL cells (CD19+) [5]: 65%
Ror1 MFI [6]: 10
Ror1 MFI [7]: 33
Ror1 MFI [8]: 25
Ror1 MFI [9]: 18
Freq. (%) of Ror1+ CLL cells (CD19+) [10]: 61%
Freq. (%) of Ror1+ CLL cells (CD19+) [11]: 63%
Freq. (%) of Ror1+ CLL cells (CD19+) [12]: 93%
Freq. (%) of Ror1+ CLL cells (CD19+) [13]: 91%
Freq. (%) of Ror1+ CLL cells (CD19+) [14]: 50%
Freq. (%) of Ror1+ CLL cells (CD19+) [15]: 36%
Ror1 MFI [16]: 14
Ror1 MFI [17]: 14
Ror1 MFI [18]: 11
Ror1 MFI [19]: 19
Freq. (%) of Ror1+ CLL cells (CD19+) [20]: 69%
Ror1 MFI [21]: 20
Freq. (%) of Ror1+ CLL cells (CD19+) [22]: 80%
Ror1 MFI [23]: 20
Ror1 MFI [24]: 20
Freq. (%) of Ror1+ CLL cells (CD19+) [25]: 79%
Freq. (%) of Ror1+ CLL cells (CD19+) [26]: 86%
Freq. (%) of Ror1+ CLL cells (CD19+) [27]: 80%
Ror1 MFI [28]: 10
Freq. (%) of Ror1+ CLL cells (CD19+) [29]: 84%
Ror1 MFI [30]: 20
Ror1 MFI [31]: 13
Ror1 MFI [32]: 45
Freq. (%) of Ror1+ CLL cells (CD19+) [33]: 92%
Freq. (%) of Ror1+ CLL cells (CD19+) [34]: 36%
Ror1 MFI [35]: 35
Ror1 MFI [36]: 26
Molecule: goat anti-Ror1 polyclonal antibody (N-Ror1com) (R&D systems)

binding result [37]: binds
B1: Anti-Ror1 Ig24 (clone 2A4) antibody (antibody, IgM, V domains shown)
VH: EVKLQQSGPELVKPGASVKISCKTSGYTFTEYTMHWVKQSHGKSLEWIGGINPNNGGTSYNQKFKGKATLTVDKSSSTAYMELRSLTSEDSAVYYCALQGFAYWGQGTPLTVSS
VL: EIEITQTPALMSASPGEKVTMTCSASSSVSYMYWYQQKPRSSPKPWIYLTSNLASGVPARFSGSGSGTSYSLTISSMEAEDAATYYCQQWSSNPYTFGGGTRLELK
notes: Mouse monoclonal antibody; also called Ror Ig24 (IgM)

binding result [37]: binds
B2: Anti-Ror1 CRD16 (clone 1C11) antibody (antibody, V domains shown)
VH: EVKLQESGAELARPGASVKMSCKASGYTFTSYTMHWVKQRPGQGLEWIGYINPSSGYTEYNQKFKDKTTLTADKSSSTAYMQLSSLTSGDSAVYYCARRVLWLRRGDYWGQGTILTVSA
VL: EVLITQTPSSLSASLGERVSLTCRASQDIGSSLNWLQQEPDGTIKRLIYATSSLDSGVPKRFSGSRSGSDYSLTISSLESEDFVDYYCLQYASSPYTFGGGTKLELK
notes: Mouse monoclonal antibody; also called Ror CRD (IgM)
